Consider six molecules from patent US6322962A, “Sterol-regulated Site-1 protease and assays of modulators thereof” (Board of Regents, The University of Texas System, priority 1999, dated 2001).

One series concerns furin. To be noted: cited from earlier work.
In the next series the test system is SREBP-2. The series can be described thus: Immunoblot of cleavage of HSV-tagged SREBP-2 in transfected SRD-12B cells. In kind it is cell-based, hamster. To be noted: SRD-12B cells, HSV-tagged SREBP-2. Here is the method: On day 0, SRD-12B cells were set up at a density of 6×10^5 cells/60-mm dish in medium B. On day 1, cells were transfected with 4 μg of the indicated plasmid DNA plus 12 μl of LipofectAMINE™ reagent (Life Technologies) according to the manufacturer's instructions with modifications as follows. LipofectAMINE™/DNA complexes were formed in 1 ml of serum-free medium for 15 min at room temperature, and 0.5 ml were added to 1 ml of serum-free medium per dish. […] After incubation at 37 ° C. for 20 h, the cells received N-acetyl-leucinal-leucinal norleucinal (ALLN) at a final concentration of 25 μg/ml. […] After boiling for 5 min, the proteins were subjected to SDS-PAGE and transferred to Hybond-C Extra nitrocellulose filters (Amersham). The filters were incubated with the antibodies described in the figure legends. […] Gels were calibrated with prestained molecular weight markers (New England Biolabs, Beverly, Mass.). Filters were exposed to X-Omat Blue XB-1 film (Kodak, Rochester, N.Y.) with intensifying screens at room temperature for the indicated time.
Cell membranes and nuclear extracts were subjected to electrophoresis and blotted with an antibody against the HSV epitope-tag.
In a more direct test for S1P catalytic activity, the mutant plasmids were transfected into the SRD-12B cells together with pTK-HSV-BP2. Membranes and nuclear extracts were subjected to SDS-PAGE and blotted with an antibody against the HSV-tagged SREBP-2 (FIG. 9B).
The inventors cotransfected cDNAs encoding wild-type S1P or one of the mutants. Cell membrane pellets and nuclear extracts were subjected to SDS-PAGE. and the NH2 -terminus of SREBP-2 was visualized by immunoblotting with anti-HSV (FIG. 16A).
Background: In western blotting, separated proteins are transferred to a membrane and probed.

On to `O=C(O)CN(CCN(CC(=O)O)CC(=O)O)CC(=O)O` [EDTA], for which, in the series with furin (Nakayama, 1997, Molloy et al., 1992), the inhibition of furin entry is “totally inhibited”.

In the case of “furin: subtilisin-like protease, literature comparator”, the “Kcat (furin in a similar assay)” value in the series on furin (Molloy et al., 1992) is recorded as 1.6 mol/min per mol of enzyme. The pH optimum with furin (furin and the prohormone convertases, Nakayama, 1997) is 6-7.

B1: S1P-B: amino acids 138-1052 of SEQ ID NO:1 (protein)
chain: FAESDPIVPCNETRWSQKWQSSRPLRRASLSLGSGFWHATGRHSSRRLLRAIPRQVAQTLQADVLWQMGYTGANVRVAVFDTGLSEKHPHFKNVKERTNWTNERTLDDGLGHGTFVAGVIASMRECQGFAPDAELHIFRVFTNNQVSYTSWFLDAFNYAILKKIDVLNLSIGGPDFMDHPFVDKVWELTANNVIMVSAIGNDGPLYGTLNNPADQMDVIGVGGIDFEDNIARFSSRGMTTWELPGGYGRVKPDIVTYGAGVRGSGVKGGCRALSGTSVASPVVAGAVTLLVSTVQKRELVNPASVKQALIASARRLPGVNMFEQGHGKLDLLRAYQILSSYKPQASLSPSYIDLTECPYMWPYCSQPIYYGGMPTIVNVTILNGMGVTGRIVDKPEWRPYLPQNGDNIEVAFSYSSVLWPWSGYLAISISVTKKAASWEGIAQGHIMITVASPAETEAKNGAEHTSTVKLPIKVKIIPTPPRSKRVLWDQYHNLRYPPGYFPRDNLRMKNDPLDWNGDHVHTNFRDMYQHLRSMGYFVEVLGAPFTCFDATQYGTLLMVDSEEEYFPEEIAKLRRDVDNGLSLVIFSDWYNTSVMRKVKFYDENTRQWWMPDTGGANIPALNELLSVWNMGFSDGLYEGEFALANHDMYYASGCSIAKFPEDGVVITQTFKDQGLEVLKQETAVVENVPILGLYQIPAEGGGRIVLYGDSNCLDDSHRQKDCFWLLDALLQYTSYGVNPPSLSHSGNRQRPPSGAGLAPPERMEGNHLHRYSKVLEAHLGDPKPRPLPACPHLSWAKPQPLNETAPSNLWKHQKLLSIDLDKVVLPNFRSNRPQVRPLSPGESGAWDIPGGIMPGRYNQEVGQTIPVFAFLGAMVALAFFVVQISKAKSRPKRRRPRAKRPQLTQQTHPPRTPSV
As for B1, in the series on SREBP-2, the “cleavage of SREBP-2 by S1P or S1P mutant” value is “active”.

B2: Site B+C mutant: S1P containing both the Site-B and Site-C mutations (protein)
chain: DGGRSEQKLISEEDLNGEQKLISEEDLNGEQKLISEEDLNSSGRLGKKAFEKASCPSCSHLTLKVEFSSTVVEYEYIVAFNGYFTAKARNSFISSALKSSEVDNWRIIPRNNPSSDYPSDFEVIQIKEKQKAGLLTLEDHPNIKRVTPQRKVFAAAAFAESDPIVPCNETRWSQKWQSSRPLVAASLSLGSGFWHATGRHSSAAAAAAIPRQVAQTLQADVLWQMGYTGANVRVAVFDTGLSEKHPHFKNVKERTNWTNERTLDDGLGHGTFVAGVIASMRECQGFAPDAELHIFRVFTNNQVSYTSWFLDAFNYAILKKIDVLNLSIGGPDFMDHPFVDKVWELTANNVIMVSAIGNDGPLYGTLNNPADQMDVIGVGGIDFEDNIARFSSRGMTTWELPGGYGRVKPDIVTYGAGVRGSGVKGGCRALSGTSVASPVVAGAVTLLVSTVQKRELVNPASVKQALIASARRLPGVNMFEQGHGKLDLLRAYQILSSYKPQASLSPSYIDLTECPYMWPYCSQPIYYGGMPTIVNVTILNGMGVTGRIVDKPEWRPYLPQNGDNIEVAFSYSSVLWPWSGYLAISISVTKKAASWEGIAQGHIMITVASPAETEAKNGAEHTSTVKLPIKVKIIPTPPRSKRVLWDQYHNLRYPPGYFPRDNLRMKNDPLDWNGDHVHTNFRDMYQHLRSMGYFVEVLGAPFTCFDATQYGTLLMVDSEEEYFPEEIAKLRRDVDNGLSLVIFSDWYNTSVMRKVKFYDENTRQWWMPDTGGANIPALNELLSVWNMGFSDGLYEGEFALANHDMYYASGCSIAKFPEDGVVITQTFKDQGLEVLKQETAVVENVPILGLYQIPAEGGGRIVLYGDSNCLDDSHRQKDCFWLLDALLQYTSYGVNPPSLSHSGNRQRPPSGAGLAPPERMEGNHLHRYSKVLEAHLGDPKPRPLPACPHLSWAKPQPLNETAPSNLWKHQKLLSIDLDKVVLPNFRSNRPQVRPLSPGESGAWDIPGGIMPGRYNQEVGQTIPVFAFLGAMVALAFFVVQISKAKSRPKRRRPRAKRPQLTQQTHPPRTPSV
For B2, the “cleavage of SREBP-2 by S1P or S1P mutant” value in the series on SREBP-2 is “no detectable cleaved nuclear form”.

B3: S1P-C: amino acids 187-1052 of SEQ ID NO:1 (protein)
chain: RAIPRQVAQTLQADVLWQMGYTGANVRVAVFDTGLSEKHPHFKNVKERTNWTNERTLDDGLGHGTFVAGVIASMRECQGFAPDAELHIFRVFTNNQVSYTSWFLDAFNYAILKKIDVLNLSIGGPDFMDHPFVDKVWELTANNVIMVSAIGNDGPLYGTLNNPADQMDVIGVGGIDFEDNIARFSSRGMTTWELPGGYGRVKPDIVTYGAGVRGSGVKGGCRALSGTSVASPVVAGAVTLLVSTVQKRELVNPASVKQALIASARRLPGVNMFEQGHGKLDLLRAYQILSSYKPQASLSPSYIDLTECPYMWPYCSQPIYYGGMPTIVNVTILNGMGVTGRIVDKPEWRPYLPQNGDNIEVAFSYSSVLWPWSGYLAISISVTKKAASWEGIAQGHIMITVASPAETEAKNGAEHTSTVKLPIKVKIIPTPPRSKRVLWDQYHNLRYPPGYFPRDNLRMKNDPLDWNGDHVHTNFRDMYQHLRSMGYFVEVLGAPFTCFDATQYGTLLMVDSEEEYFPEEIAKLRRDVDNGLSLVIFSDWYNTSVMRKVKFYDENTRQWWMPDTGGANIPALNELLSVWNMGFSDGLYEGEFALANHDMYYASGCSIAKFPEDGVVITQTFKDQGLEVLKQETAVVENVPILGLYQIPAEGGGRIVLYGDSNCLDDSHRQKDCFWLLDALLQYTSYGVNPPSLSHSGNRQRPPSGAGLAPPERMEGNHLHRYSKVLEAHLGDPKPRPLPACPHLSWAKPQPLNETAPSNLWKHQKLLSIDLDKVVLPNFRSNRPQVRPLSPGESGAWDIPGGIMPGRYNQEVGQTIPVFAFLGAMVALAFFVVQISKAKSRPKRRRPRAKRPQLTQQTHPPRTPSV
Regarding B3, in the series with SREBP-2, the “cleavage of SREBP-2 by S1P or S1P mutant” value is recorded as “active”.

B4: S1P-A: amino acids 23-1052 of SEQ ID NO:1 (protein)
chain: DRLGKKAFEKASCPSCSHLTLKVEFSSTVVEYEYIVAFNGYFTAKARNSFISSALKSSEVDNWRIIPRNNPSSDYPSDFEVIQIKEKQKAGLLTLEDHPNIKRVTPQRKVFRSLKFAESDPIVPCNETRWSQKWQSSRPLRRASLSLGSGFWHATGRHSSRRLLRAIPRQVAQTLQADVLWQMGYTGANVRVAVFDTGLSEKHPHFKNVKERTNWTNERTLDDGLGHGTFVAGVIASMRECQGFAPDAELHIFRVFTNNQVSYTSWFLDAFNYAILKKIDVLNLSIGGPDFMDHPFVDKVWELTANNVIMVSAIGNDGPLYGTLNNPADQMDVIGVGGIDFEDNIARFSSRGMTTWELPGGYGRVKPDIVTYGAGVRGSGVKGGCRALSGTSVASPVVAGAVTLLVSTVQKRELVNPASVKQALIASARRLPGVNMFEQGHGKLDLLRAYQILSSYKPQASLSPSYIDLTECPYMWPYCSQPIYYGGMPTIVNVTILNGMGVTGRIVDKPEWRPYLPQNGDNIEVAFSYSSVLWPWSGYLAISISVTKKAASWEGIAQGHIMITVASPAETEAKNGAEHTSTVKLPIKVKIIPTPPRSKRVLWDQYHNLRYPPGYFPRDNLRMKNDPLDWNGDHVHTNFRDMYQHLRSMGYFVEVLGAPFTCFDATQYGTLLMVDSEEEYFPEEIAKLRRDVDNGLSLVIFSDWYNTSVMRKVKFYDENTRQWWMPDTGGANIPALNELLSVWNMGFSDGLYEGEFALANHDMYYASGCSIAKFPEDGVVITQTFKDQGLEVLKQETAVVENVPILGLYQIPAEGGGRIVLYGDSNCLDDSHRQKDCFWLLDALLQYTSYGVNPPSLSHSGNRQRPPSGAGLAPPERMEGNHLHRYSKVLEAHLGDPKPRPLPACPHLSWAKPQPLNETAPSNLWKHQKLLSIDLDKVVLPNFRSNRPQVRPLSPGESGAWDIPGGIMPGRYNQEVGQTIPVFAFLGAMVALAFFVVQISKAKSRPKRRRPRAKRPQLTQQTHPPRTPSV
With B4, in the series with SREBP-2, the “cleavage of SREBP-2 by S1P or S1P mutant” value was “inactive”.
